Measured values published in US20070207960A1 (published 2007).

T1: plasma-derived human FVII (Enzyme Research Labs) (human, UniProt P08709 61-466)
T1 construct: mature; also called pdFVII; Standard FVII
T1 sequence (looked up): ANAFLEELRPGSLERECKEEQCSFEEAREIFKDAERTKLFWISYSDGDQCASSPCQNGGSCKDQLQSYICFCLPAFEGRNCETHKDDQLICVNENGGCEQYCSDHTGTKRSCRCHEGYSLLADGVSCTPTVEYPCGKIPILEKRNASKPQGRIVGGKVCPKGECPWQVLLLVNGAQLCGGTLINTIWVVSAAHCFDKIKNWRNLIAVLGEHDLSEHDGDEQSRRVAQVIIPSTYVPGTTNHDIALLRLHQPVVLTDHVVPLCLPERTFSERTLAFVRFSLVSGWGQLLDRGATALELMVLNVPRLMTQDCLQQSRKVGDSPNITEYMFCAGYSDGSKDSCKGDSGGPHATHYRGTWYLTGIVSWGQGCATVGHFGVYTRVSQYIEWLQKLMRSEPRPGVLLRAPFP


Key:
[1] = target: T2, monoclonal antibody 231-7; assay: competitive ELISA; rFVIIa competes with biotinylated plasma-derived FVII for adsorbed MoAb 231-7
T2 construct: Conformation-sensitive antibody to the FVII EGF-1 domain; also called MoAb231-7
Experimental: Following four washes with TBS-T w/o BSA containing 1 M NaCl, 100 μl streptavidin-alkaline phosphatase (1:25,000 dilution in TBS-T+BSA) was added for 1 hr, RT. After an additional four washes with TBS-T w/o BSA containing 1M NaCl, the colourimetric reaction was developed with 100 μl of 1 mg/ml p-nitrophenylphosphate in diethanolamine buffer (10% diethanolamine, 0.5 mM MgCl₂, pH 9.8). The reaction was stopped after 60 minutes by the addition of 25 μl of 0.5M EDTA to each well.

[2] = target: T1, plasma-derived human FVII (Enzyme …); assay: surface plasmon resonance (BIAcore); sTF captured by immobilized anti-TF antibody, FVII injected
Text: An anti-TF antibody was immobilized on the BIAcore flow cell at high density and subsequently reacted with recombinant sTF. […] Data from reference cells containing the same amount of anti-TF antibody but no sTF were subtracted to correct for non-specific binding. […]

Binder | Relative Increase in Affinity (relative to rFVIIa (wt)) [1] [fold] | Kd [2] [nM]
rFVIIa(wt)-FFR (enzyme, human, active site covalently modified with the peptide chloromethylketone FFRck, range 1-152;range 153-406; also called rFVIIa(wt)-FFRck; rFVIIai(wt)) chain 1: ANAFLEELRPGSLERECKEEQCSFEEAREIFKDAERTKLFWISYSDGDQCASSPCQNGGSCKDQLQSYICFCLPAFEGRNCETHKDDQLICVNENGGCEQYCSDHTGTKRSCRCHEGYSLLADGVSCTPTVEYPCGKIPILEKRNASKPQGR chain 2: IVGGKVCPKGECPWQVLLLVNGAQLCGGTLINTIWVVSAAHCFDKIKNWRNLIAVLGEHDLSEHDGDEQSRRVAQVIIPSTYVPGTTNHDIALLRLHQPVVLTDHVVPLCLPERTFSERTLAFVRFSLVSGWGQLLDRGATALELMVLNVPRLMTQDCLQQSRKVGDSPNITEYMFCAGYSDGSKDSCKGDSGGPHATHYRGTWYLTGIVSWGQGCATVGHFGVYTRVSQYIEWLQKLMRSEPRPGVLLRAPFP | 1.4 | –
rFVIIa(wt)-DEGR (enzyme, human, active site covalently modified with the peptide chloromethylketone DEGRck, range 1-152;range 153-406; also called rFVIIa(wt)-DEGRck; rFVIIai(wt)) chain 1: ANAFLEELRPGSLERECKEEQCSFEEAREIFKDAERTKLFWISYSDGDQCASSPCQNGGSCKDQLQSYICFCLPAFEGRNCETHKDDQLICVNENGGCEQYCSDHTGTKRSCRCHEGYSLLADGVSCTPTVEYPCGKIPILEKRNASKPQGR chain 2: IVGGKVCPKGECPWQVLLLVNGAQLCGGTLINTIWVVSAAHCFDKIKNWRNLIAVLGEHDLSEHDGDEQSRRVAQVIIPSTYVPGTTNHDIALLRLHQPVVLTDHVVPLCLPERTFSERTLAFVRFSLVSGWGQLLDRGATALELMVLNVPRLMTQDCLQQSRKVGDSPNITEYMFCAGYSDGSKDSCKGDSGGPHATHYRGTWYLTGIVSWGQGCATVGHFGVYTRVSQYIEWLQKLMRSEPRPGVLLRAPFP | 2.8 | –
recombinant soluble human tissue factor (receptor, UniProt P13726 33-251, looked up, extracellular domain; It was captured on the BIAcore chip by an immobilized anti-TF antibody; also called sTF; soluble human TF) SGTTNTVAAYNLTWKSTNFKTILEWEPKPVNQVYTVQISTKSGDWKSKCFYTTDTECDLTDEIVKDVKQTYLARVFSYPAGNVESTGSAGEPLYENSPEFTPYLETNLGQPTIQSFEQVGTKVNVTVEDERTLVRRNNTFLSLRDVFGKDLIYTLYYWKSSSSGKKTAKTNTNEFLIDVDKGENYCFSVQAVIPSRTVNRKSTDSPVECMGQEKGEFRE | – | 29
